Measurements published in a protein production outcome set (Wang et al. 2014).

Assay: label from the status in PepcDB records

Sequence	protein production
MQTVRGWLTLPLALLIVLTGCMAVLSALVIEVQAGATSWIIGESHWSKAQQESVYWLERYLGSADPADLQAACRALEVPLGDRAARLAVDASPIDWAEVYAGLAAGRNAREDMPQMVRLYRYGQRLPYLGSAIALWKHTDGDILHLSLLADRAASAQATGTPDARALQSLRAELHLLDGRMRRDAAQFLTLLTRCARMLHDVMVTCSLATLLLVLSTCVLAIRRTRDYLMSHEGRFRTAFQHAALGMVKFDLSGRVLDANASLANILQYPPEALQACTLAEVMHPDDIVLDSRGLIDWPRLMQAGELRFLRSDGGVLWGRWSASLVEPGPQEPSLVLAVIEDVSQAHELADEVAYHARHDALTGLINRREIERRLQRLIDPPQSPQLCHALCFVDLDHFKLVNDTFGHAVGDKFLCHFADVITMQLRPGDWLGRLGGDEFAILLANTDLAHAHTLLERMHGVLGQPWSHQGGRPLTPSCSFGVVEIRQGADDVNLLMTAADLACHAAKEEGRNRIRSFGETDLAMARRRHDGGWISAVQQAIAEDRLLLYAQKIQVLSDPGRVQYEVLVRMRTRDGRVLSPGEFLPAVERYGLGRMVDAHVLETLCAQLSANPAHVASLDLCHVNLSAQSIAQRDFLDFVCALFERYPALVAKLCLEITETAVIGDLEHAQRFVQSVRARGCHVALDDFGSGLASFGYLKQFTVDVLKIDCGFVRNYAHDAVDRATVHSIAQVGLALGIEVVAEGVESEADIAGLREAGVGQVQGFSLHRPCPLDDLLHVSLPSLAAS	failed
MTKILAIIGARLNSSRLAGKHLLPLACDAAGNTLPIIGHILRRLKTCSTISSIELATTADEFNQPLINWAQENQLTCVPFEGDVNDLMGRLDRIIQRQQPDYIVYICGDCPLIDPNFIDHALLALKASDKDTITLKEGIISLHEGIGFYTRSGWNRLMAVSDCVMSREHVGYGDKLRPVLTKLYIDDSGNYGKITHRISVDTHADYRFMVEVYRRWYVNNPTETVVSLEWVQEELLKDSALFAINAHVQQKAANKNYAKASIYCHLGPQIGLGHFKRSELIANALQEHLSLGVNIHAYSEAGQRLDSSSKVVWHEDEQALLSALTEDQNPLVLLDFHPNFIDLESFANRLAGLAKHGAKRIGIDKMAPLLDELDWLFIPSFNSPTHHPKISAGWRNYLFSTIPQATKQAQILVLTGGSDALGYGRELPTILDSIGTDWPILWIQGPLAPAPQLTPNSAIVVQQNPDNLKEIIAQSEIILSCYGLSLFESIYGKAATLLLPPQHLCDEAELFALNQERCCLVSDSLEEAKMMLQQLLTEPEQRRSLQNQATRVFESHQGIQALIDDIHHLLGAVN	failed
MLHELFSVYLKMLVLYSPFFVLSCFISLTRGHSSKERKQLAWKVAFAALVASVLLYLFGRAIFGIFGITADAFRIGAGSVLFISALGMAQGKPAVQADNVQQDVTIVPLTIPLTVGPGTIGALLVMGVSQPHWDEKLLAIVSIALASFTVGLVLYLSHGIERLLGDQGLQIVSRLMGLFVCALAAQIIFTGIRGYLLP	failed
MLYSSDLLAIVGAGEQASLSPRRLCLFKTTTGLPLRELNFLTSILAVRMNKKRLVVVLLEKTFVYDLNTLVMLDTIDTVPNPKGLSAFSPSLEGCYLAVPASTTKGSVLVYNVMDLQSHSEIDAHRSPLAAIALSSNGMYIATGSEQGTLIRVHLVSEATKSYSFRRGTYPSTIYSLSFGPSTQLPDILIATSSSGSIHAFSLSLAINQRSKRSTSFLGSVLPDSVSDALDPAHHHVLQNAVSSGIRSYAVVRKIDKLEGTSSPSHFTSLRATVSVITYNGYFQEYTLSINNKNESLWTLEREFNLFSITTG	failed
MSLHETFNRSAFSQFINGGQGRVLRLAAGLGFLAVGLVYRDRALGLAAMAWSVLPLTAGGFDVCYISAALGGPLSGEKIRRLRR	failed
MQDVLVIFAFFIILLSIVIALIKDLSSWVYITILLAIASWLLLFPQILSPYVVGIDAHFEHIIAEETLRTGHWDPDLSGNIVNAALSITILTPFISIVSGIPLDWVLKIILTIYPLISIPIIWKSNIHILSFSNRESFLSLLLLIGTSSFMLISVYGRQEVGLFSGLVLLYFLHFKKSSVQLSIVLIFLVIGLIFSHYSTAIILIITYAISSLFLYLFQRDKCSMRLVLFSIVFMVFWLILIVYASMASISHSFNFIYLSILDWATENSSIVVEQQLNPTFYNIFQSLNYVINIFIIIFLVIGTSYLVYSRVVKSKLESEENKKYFIFAFLSSIYILLSVLPGFSSVYNAERIYLTTLYLFSGFSLIGFKRVFVYIVTFFTKFSPIYLKKSNKYIFVVFSFFVLVHFVLQVGILPMLYYGDTNSKYFGDISEDRHYTLEEEVYAVNWLQGINNNNRIYTDFYGRGRLPLRSYGNIPTSQIVDLKEIGPTTLNLRNIIFYQQKKELNDEVSSKNFEQIEEINNFLQKYGSTLYNSGMTEVKVINLNS	failed
RFRVTPYHGNLLGDHERLAAFREAISSRARGLTYDLGAGSGILSFFASEYADRVIAIERDPKIAACAGENLSGLDNVSVVNEDALHYEFSAADTIICEMLDTALIDEEQVPVLRRALKFLRNDGTVIPQAVF	failed
MILLTYLIGILIGLSLTAPPGPVNSVISTESMKSKAHGVSVGAGAMTADLVFFVIVFRFGAFIPVLALHALYLAGAVLLLYISYSVLKSKISRRTRKGNYLVGLTMGITNPFQILWWMTVGLFFIRYFHIASIAGLFTGIIIWILSFPFVMNKYARRFERYVKIFSFAVLFSFAIYLLYSGVVYFLR	failed
MGHHHHHHSHMSPFLRIGLSNFDCGSCQSCQGEAVNPYCAVLVKEYVESENGQMYIQKKPTMYPPWDSTFDAHINKGRVMQIIVKGKNVDLISETTVELYSLAERCRKNNGKTEIWLELKPQGRMLMNARYFLEMSDTK	not failed
MEATNKMKVEVWSDIMCPFCYIGKRNYEAGLKQFADSNNIEIIWKSFQLDPNIPQDTAVTENVYQYLAERKGMSYEQSVQMHDSVVATAKKAGLDYNFDKAVIANSFNAHRMIQLAKTKDLGDAAEERLFYAYFTEGKNVGNSYVLIELGKDIGLTEAEVQTALTDDTYAYKVRQDVEEAQHLGVRGVPFFVFDRKYAVSGAQPPQAFLETLEKSFSEWRKEHPASPFEVSEGPSCSVDGCD	not failed
MLARVRRVLALILIVLAGLVALLSPAFPALSHYGTLPRHGDKPLNVLLAGVDVNYDEQAPVWPYPAQPEDYSGRTDTIVLTQVRPDGTVKLLSIPRDSWVPIAGWSGGWGKINSANVHGGPDMLLNTVQALTGVHPDGYALLSLNALRAVTEAVGGVTIDVPQRMKYDDNAGHLHIDLQPGRQRLSGEQAEGFLRFRKDNMGDIGRVGRQQQFLTALIAEIRRPANVWKLPKVIAALDANAKTNLTRAQIAELLGAAQRGPQVSTFTVPGNFGMVGAASVWNVDTPRLDALLAEQFRDPGDPHGLRVLVLNADAPDGSARRLKAKLEALGYHNVSTANEQKPWPVTTVSGPATPAAALLRDLGYGQLDNAPSLPGSELTIRLGRDTPAQ	failed
MKKKDMNKQVKIQDAVAAIILAEGPAGVSTTKVAKRVGIAQSNVYLYFKNKQALIDSVYARETNRILSTTDLDRLSDSTIDVTTRIRLYVQQVYDYSLANPDSLTIIQQIKALNGQGMTISAADADPNNIVANLLTAAIDAKVIKQLPVSLHMGVVFSTIHTHTTNISKGRYAQDQYTFGDIFQMIWDAMKQD	not failed
MGHHHHHHENLYFQSHERLSEKKIKNLLTSKQQRQQYEIKQRSMLRHLAELRRHSRFRRLCTKPASSSMPASTSSVDRRTTRRSTSQTSLSPSNSSGYGSVFGCEEHDVDKIPSLNGFAKLKRRRSSCVGAPTPNSKRSKNNMGVIAKRPPKGEYVVERIECVEMD	failed
MIRAASDDPAGVDELVAAIAPGLAGLGLPVINRREVVLVTGPWLAGVSGVRAALAERLPQRRFVETAELGPGDAPVAVVFVVSAATALTESDCVLLDTAAEHTDAVVAVVSKIDVHRGWRDVLTSNRDRLAARASRYARVPWVGAAAAPELGEPYLDDLVAAIQKQLADPAVARRNMLRAWESRLLMVARRFDGDAQSAGRRARVDALRQQRRTVLRQGRQSKSEHTIALRAQIQHARVKLSYFARNRCSLLRVELQEHVAGLSRKDIARFAAYTRGRVQEVVAEVGEGAVAHLADVAQLLGVPVQPPVLENLPAVLPTVVAPPLTSRRLEIRLTTLLGAGFGLGIALTLSRLVAGLTPGLAASGMVAGVAIGLAVTAWVVNARALLHDRVVVDRWTGEVTASLRSVVEQLVATRVVAVETLLSTAISERDDAENARVADQVSIIDGELREHAVAAARAAALRDREMPAVRAALEAVRAELGEPGAPTTGLF	failed
MNGRRERAQGTEWAGDPAGCGTMERMPSALPDGEPVPADGALPASALAGAADRPLGFYLHVPYCATRCGYCDFNTYTATELRGTGGVLASRDNYADTLVDEVRLARKVLGDDPREVRTVFVGGGTPTLLAAGDLVRMLGAIRDEFGLAPDAEITTEANPESVDPAYLATLRAGGFNRISFGMQSAKQHVLKILDRTHTPGRPEACVAEARAAGFDHVNLDLIYGTPGESDDDWRASLDAALGAGPDHVSAYALIVEEGTQLARRIRRGEVPMTDDDVHADRYLIAEEALSAAGYDWYEVSNWATSDAGRCLHNELYWRGADWWGAGPGAHSHVGGVRWWNVKHPGAYAGALAAGKSPGAGREILTDEDRRVERILLELRLREGVPLSLLREAGLAASRRALSEGLLQEGPYEAGSAVLTLRGRLLADAVVRDLVD	failed
MKKSLLMLLLSAATLSSIEAQTIQQMKAGGPWPVRAAFKTDTVGMNGSKYNPADLLRQAYDATDKDLRNVSADKDGRIAGRKAGSKAERSEMAVYSFALTAEHFAKGDIEVFGQGRMSLWLDDKQIGIADSPNSKGDTTLRFSASLSLVPGTHHLLLKSLLLEGDTTATDVRVVLKPKTARDSSALYPNYTGKERLSLKHMMSGTFLSGGSLSPTGKYVLTSYRVSRDNKPAVTYNQLRDAKGNILLNLNEKEALGWMPHEDMLMVIRKEGNAKRLVAFDPMGKGEKTLVSNLPESQFRMSPDARYYLFYKQEKGPGKDPLFIRHLDPDDRQSDWRDRSQIYLLNAESGVYGPLTFGYSTTYIYDIAPDSKRALIGTLSTDWTRRPFRFATIMEYNMETGKADTLITRDPSIDAIQYTPDGKHLIVMGSADAFGNIGLNLKSGVTPNSYDKQFFLFDLSTRKATALTKNFNPSVSAGRFDRKNNYYYFRAENGSRKQLYRLDLKTLEISQIQTGEDVVQWFGVAADNGAVWYSGQSANNADRLYRLDGTKGKLVWDLSAEKLANIDFTPARDWNYTAPDGTVVEGWYYLPPQFDPSKKYPMLVYYYGGTSPINRTLEGHYSLAMYAAQGYVVYTLNPSGTTGYGQEYAARHVNAWGDRTADEIIGATKEFIRTHSFVNGKKVGCFGASYGGFMTQYLQTKTDIFAAAVSHAGISSISNYWGSGYWGMGYSTVASTDSYPWNNPDLYAGHSPLFRADKIHTPLLLLHGSVDTNVPTAESVNLYNALKILGREVEFIEFTEQDHFILEPERRIRWTNSICAWFARWLQDDPTWWNELYPPVNL	failed
ASASIKKVAATLADAAITDGIGDATKAKAALDKISDAGGLIEDIGATRAQFGANINRLEHTMTNLGNMVENTSAAKGRIM	failed
MSFGNEKGQDIIHRKEVEFFVKNLKDYFSNINKYVVILWDEEGIILEFKENGGNLLGYTPEQIEGKKWPDILTDGKDKEQTTEINKKLVNSKIVRYYINSIKDVNGTSKIFLWCNLKLENVQSDKKIFLSVGFNLDSIDNLKEKTDESKFELDTLNEKKENLEFKVTKDDLILKQKDDTIRDYKSKLEFLAFYDELTGLPNKNSLIRWLNLKVSQMDCIDTYLIFLEVRDLEKLNVTYGYDLVDELIIHISKRIKDIAGEGNKAFKIGFDRFAIICKSENISDFIERMLSQLLLPYNVNGNLIRVNFNIGAAQIENSNEAAANLMRRCDLALIKAKEEGLNEYVIFKPSIEIQTLKEGILERELRNGIELNEFIVFYQPFVKLENDKICGFEALLRWYYLKSVFVSPLEFIPVAEKYGLIIDLGNMVLKQSLKAGKILKKYYDDEFTISINISPKQFIDKRFVKNTIEILENEKLQDIRLRFEITEKVAIENIDYTIRIMNEFKKYNVTFALDDFGVEYSSLNYLRKLPIEAVKIDKSFVQDINDHDTYFIVETIVKLCKKLNLKTVIEGVETQRQYQIIKELGCDYAQGYFIAKPLPINELINLVGKYKILE	failed
